From patent US20100158927A1

Molecular target: HLA-A2 molecules on the cell surface (total) (human)
Assay: flow cytometry on 501A melanoma cells, PE-conjugated BB7.2

MFI: 56.4 MFI
Substance: anti-HLA-A2 mAb BB7.2 (antibody)
